Like-named read-outs stand apart in the source and are kept apart here.
Legend:
[1] = set-up: species or system mice (BALB/c nu/nu); settings: mouse, in vivo
Procedure: (§1) A Gd-labeled conjugate of the conjugate containing a peptide linker produced in one of the above Examples was administered from the tail vein of tumor-bearing mice so that the protein mass was 0.02 mg (100 μL) per animal. As the tumor-bearing mice used in the present Example, mice (BALB/c nu/nu) that were in a tumor-bearing state brought about by transplanting human colorectal cancer cell line LS174T cells (ATCC(registered trademark); CL-188) at 2.0 to 5.0×10^6 cells/mouse subcutaneously on the back before administration of the sample were used. 24 hours after administration of the sample, the mice were sacrificed, the kidneys and the tumor were removed, and the amounts of Gd in the kidneys and in the tumor were measured using ICP-MS. The present test was carried out in 3 cases in each group, and the mean value of the 3 cases was calculated. The amount of Gd contained per kidney after administration was shown as a percentage of the amount of Gd administered (% of dose/tissue), and the amount of Gd contained per g of tumor tissue was shown as a percentage of the total amount of Gd administered (% of dose/g).

[2] = Example 4-1: kidney accumulation evaluation test of Gd-labeled conjugates (normal mice); settings: about 24 hours, relative to control conjugate Ex-No 47
Procedure: (§2) A Gd-labeled conjugate of the conjugate containing a peptide linker produced in one of the above Examples was administered from the tail vein of mice (BALB/c or BALB/c nu/nu) so that the protein mass was 0.02 mg (100 μL) per animal. After about 24 hours, the mice were sacrificed and the kidneys were removed, and the amount of Gd in the kidneys was measured using ICP-MS. The present test was carried out in 3 cases in each group, the mean value of the 3 cases was calculated, and the amount of Gd contained per kidney after administration was shown as a percentage (% of dose/tissue) of the total amount of Gd administered.
(§3) Based on the percentage of the control conjugate (% of dose/tissue), the proportion of decrease in the amount of Gd contained in the kidneys of each of the conjugates having a peptide linker was determined and shown in Table 28.

[3] = test system: human colorectal cancer cell line LS174T cells; assay: Example 4-4: amount of tumor accumulation of Gd-labeled conjugates (tumor-bearing mice); settings: tail vein, 0.02 mg protein per animal, 24 hours, ICP-MS, mean of 3 cases
Procedure: as §1

[4] = set-up: species or system mice (BALB/c or BALB/c nu/nu); settings: mouse, in vivo
Procedure: as §2

[5] = mouse, in vivo
Procedure: as §2, §3

[6] = mouse, in vivo; remark: listed apart in the source
Procedure: as §2

[7] = biological target: human cancer-specific MUC1; assay: Example 6-1: ELISA binding activity of anti-human MUC1 antibody Fab^5 fragment conjugates; settings: immobilized human cancer-specific MUC1 peptide, single runs of P10-2, read-out: EC50 value (nM) for each of 3 runs
human cancer-specific MUC1, sequence (P15941 136-155 limits assumed): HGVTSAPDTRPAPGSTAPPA

[8] = biological target: human cancer-specific MUC1; assay: Example 6-2: ELISA binding activity of anti-human MUC1 antibody Fab^5 fragment conjugates; settings: immobilized human cancer-specific MUC1 peptide
Procedure: Each anti-human MUC1 antibody Fab^5 fragment conjugate prepared by the method of Example 5 was subjected to ELISA to evaluate the binding activity thereof to human cancer-specific MUC1. In the present test, 20×PBS/Tween 20 Buffer (Thermo Fisher Scientific Inc., 28352) diluted 20-fold with distilled water was used as a wash liquid. In addition, for bovine serum albumin (BSA) used in the present test, 30% Bovine Serum Albumin solution (Sigma-Aldrich, Inc., A9576-50ML) was added in an appropriate proportion for use. A human cancer-specific MUC1 peptide (PTL 1) at 0.5 μmol/L was added to a Nunc MaxiSorp White 384 plate (Nunc, 460372) at 30 μL per well, and the plate was incubated overnight at 4° C. for immobilization. The MUC1 peptide was removed by reverse centrifugation, and then blocking was carried out by adding a PBS/Tween 20 buffer containing 5.0% BSA. […] The substrate was incubated at room temperature for 15 minutes, and then a signal value thereof was measured using an Envision counter (PerkinElmer, Inc.).
The test for each antibody was carried out in duplicate, and the EC50 value was calculated using a 4-parameter logistic curve model.

[9] = set-up: species or system mice (BALB/c or BALB/c nu/nu); settings: mouse, in vivo; remark: listed apart in the source
Procedure: as §2
Based on the amount of Gd contained in the kidneys of the control conjugate, the proportion of decrease in the amount of Gd contained in the kidneys of each of the conjugates having a peptide linker was determined.

[10] = set-up: species or system mice (BALB/c nu/nu); settings: mouse, in vivo; remark: listed apart in the source
Procedure: (§4) A Gd-labeled conjugate of the conjugate containing a peptide linker produced in one of the above Examples was administered from the tail vein of the tumor-bearing mice so that the protein mass was 0.02 mg (100 μL) per animal. As the tumor-bearing mice used in the present Example, mice (BALB/c nu/nu) that were in a tumor-bearing state brought about by transplanting human breast cancer cell line MDA-MB-468 (ATCC(registered trademark); HTB-132) at 5.0×10^6 cells/mouse subcutaneously on the back before administration of the sample were used. 24 hours after administration of the sample, the mice were sacrificed, the kidneys and the tumor were removed, and the amounts of Gd in the kidneys and in the tumor were measured using ICP-MS. The present test was carried out in 3 cases in each group, and the mean value of the 3 cases was calculated. The amount of Gd contained per kidney after administration was shown as a percentage of the amount of Gd administered (% of dose/tissue), and the amount of Gd contained per g of tumor tissue was shown as a percentage of the total amount of Gd administered (% of dose/g).

[11] = test system: human breast cancer cell line MDA-MB-468; assay: Example 8: amount of tumor accumulation of Gd-labeled conjugates (tumor-bearing mice); settings: MDA-MB-468 tumor-bearing mice, 24 hours; control conjugate Ex-No. 108, mean of 2 runs
Procedure: as §4

B1: [Gd/DOTA-[2,5-(1,2,3,4-tetrahydroisoquinoline)]-C(═O)-Met-Gly-Lys*-Z2(#N)]p-Fab^2 (conjugate)
heavy: EVQLVESGGGLVQPGGSLRLSCAASGFNIRDTYMHWVRQAPGKGLEWVARIDPANGNSRYVPKFQGRFTISADTSRNTAYLQMNSLRAEDTAVYYCAPFGYYVSDYAMAYWGQGTLVTVSSASTKGPSVFPLAPSSKSTSGGTAALGCLVKDYFPEPVTVSWNSGALTSGVHTFPAVLQSSGLYSLSSVVTVPSSSLGTQTYICNVNHKPSNTKVDKKVEPKSCD
light: DIQLTQSPSSLSASVGDRVTITCRAGESVDIFGVGFLHWYQQKPGKAPKLLIYRASNLESGIPSRFSGSGSRTDFTLTISSLQPEDFATYYCQQTNEDPYTFGQGTKVEIKRTVAAPSVFIFPPSDEQLKSGTASVVCLLNNFYPREAKVQWKVDNALQSGNSQESVTEQDSKDSTYSLSSTLTLSKADYEKHKVYACEVTHQGLSSPVTKSFNRGEC
- Renal residual amount (cancer-bearing mice), % of dose/tissue [1]: 7.30 % of dose/tissue
- Renal residual amount (cancer-bearing mice), Proportion of decrease (%) [1]: 71.74%
- Proportion of decrease (%) in the amount of Gd contained in the kidneys [2]: 82.9%
- Amount of tumor accumulation (tumor-bearing mice), % of dose/g [3]: 4.53 % of dose/g

B2: [Gd/DOTA]p-Fab^2 (conjugate)
heavy: B1 heavy
light: B1 light
- Renal residual amount (% of dose/tissue), Mean [4]: 29.33 % of dose/tissue
- Renal residual amount (% of dose/tissue), Mean [1]: 25.83 % of dose/tissue
- Geometric mean (% of dose/tissue) [5]: 31.0 % of dose/tissue
- Renal residual amount (normal mice), % of dose/tissue [6]: 31.30 % of dose/tissue

B3: P10-2: anti-human MUC1 antibody Fab fragment disclosed in International Publication WO2018/092885 (antibody)
heavy: QVQLVQSGAEVKKPGASVKVSCKASGYTFTNYGLSWVRQAPGQGLEWMGENHPGSGIIYHNEKFRGRVTLTADRSTSTAYMELSSLRSEDTAVYYCARSSGTRGFDYWGQGTLVTVSSASTKGPSVFPLAPSSKSTSGGTAALGCLVKDYFPEPVTVSWNSGALTSGVHTFPAVLQSSGLYSLSSVVTVPSSSLGTQTYICNVNHKPSNTKVDKKVEPKSCD
light: DVVMTQTPLSLSVTPGQPASISCRSSQSIVHSNGNTYLEWYLQKPGQSPQLLIYRVSNRFSGVPDRFSGSGSGTDFTLKISRVEAEDVGVYYCFQGSHGPWTFGQGTKLEIKRTVAAPSVFIFPPSDEQLKSGTASVVCLLNNFYPREAKVQWKVDNALQSGNSQESVTEQDSKDSTYSLSSTLTLSKADYEKHKVYACEVTHQGLSSPVTKSFNRGEC
- EC50 [7]: 0.06 nM
- EC50 ([8]; single runs of P10-2, read-out: EC50 value (nM) for each of 3 runs): 0.06 nM

B4: Ex-No 108 (conjugate)
heavy: B3 heavy
light: B3 light
- Renal residual amount (normal mice), Mean (% of dose/tissue) [9]: 33.00 % of dose/tissue
- Renal residual amount (% of dose/tissue), Mean [10]: 34.67 % of dose/tissue
- Amount of tumor accumulation (% of dose/g), Mean [11]: 0.92 % of dose/g

B5: [Gd/DOTA-NH—CH2-(1,4-Ph)-NH—C(═O)-Met-Ile-NH—(CH2)2—Z1(#S)]p-Fab^5 (conjugate)
heavy: B3 heavy
light: B3 light
- EC50 ([8]; run in duplicate, read-out: EC50): 0.09 nM
